Assay results reported in article PMC7092895 (Biochemical and Biophysical Research Communications, 2005).

Tests used:
Experiment in all cases: ELISA
[1] = target: recombinant SARS-CoV nucleocapsid protein (SCoV-N), His6-tagged (SARS-CoV, strain CUHK-W1, UniProt P59595)
[2] = target: recombinant interleukin 11 (IL-11) (Homo sapiens (assumed; ), UniProt P20809)
[3] = target: interleukin 6 (IL-6) (Homo sapiens (assumed; ), UniProt P05231)
Chain of interleukin 6 (IL-6) (P05231 30-212): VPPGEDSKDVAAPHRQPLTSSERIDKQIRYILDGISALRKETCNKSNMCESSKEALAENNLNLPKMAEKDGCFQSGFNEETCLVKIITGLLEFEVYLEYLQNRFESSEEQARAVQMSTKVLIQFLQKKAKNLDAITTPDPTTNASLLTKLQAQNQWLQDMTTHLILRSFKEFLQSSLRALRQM

Chain of recombinant SARS-CoV nucleocapsid protein (SCoV-N), His6-tagged (P59595 whole entry): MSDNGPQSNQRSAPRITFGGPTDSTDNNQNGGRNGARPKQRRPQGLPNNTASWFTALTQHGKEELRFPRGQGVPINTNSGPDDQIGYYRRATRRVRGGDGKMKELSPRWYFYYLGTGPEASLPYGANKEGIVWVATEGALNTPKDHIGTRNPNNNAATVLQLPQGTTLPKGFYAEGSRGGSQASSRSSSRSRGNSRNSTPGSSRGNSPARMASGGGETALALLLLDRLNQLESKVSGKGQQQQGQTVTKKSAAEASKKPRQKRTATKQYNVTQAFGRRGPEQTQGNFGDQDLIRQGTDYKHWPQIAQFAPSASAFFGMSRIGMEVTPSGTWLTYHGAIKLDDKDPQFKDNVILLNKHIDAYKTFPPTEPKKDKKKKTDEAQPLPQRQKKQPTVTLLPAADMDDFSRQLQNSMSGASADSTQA
Chain of recombinant interleukin 11 (IL-11) (P20809 22-199): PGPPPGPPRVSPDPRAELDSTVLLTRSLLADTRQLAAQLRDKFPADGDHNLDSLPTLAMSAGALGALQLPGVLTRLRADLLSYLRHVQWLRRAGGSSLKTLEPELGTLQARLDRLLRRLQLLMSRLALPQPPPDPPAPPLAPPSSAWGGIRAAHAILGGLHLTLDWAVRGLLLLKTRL

B1: anti-N scFv L9N01 (scFv-phage clone) (scFv, V domains shown)
VH: GEAAAVQGTEVVKPGASVKLSCKASGYIFTSYDIDWVRQTPEQGLEWIGWIFPGEGSTEYNEKFKGRATLSVDKSSSTAYMELTRLTSEDSAVYFCARGDYYRRYFDLWGQGTTVTVSS
VL: DIELTQSPAIMSASPGERVTMTCSASSSIRYIYWYQQKPGSSPRLLIYDTSNVAPGVPFRFSGSGSGTSYSLTINGMEAEDAATYYCQEWSGYPYTFGGGTKLELK
Question: Does B1 bind [1]?
Answer: binds

Question: Does B1 bind [2]?
Answer: binds

Question: Does B1 bind [3]?
Answer: no binding
